System: Alu I restriction endonuclease
Assay: cleavage_in_vitro
Conditions: first strand cleavage rate constant, 13 uM (AT)2 competitor

Sequence	activity	activity (95 nM labeled duplex)
AAAAAAAAAGCTTTTTTTTT (double strand) [(AA)4 AGCT(TT)4]	0.0031 min⁻¹	
AAAAAAAGCTTTTTTT (double strand) [(AA)3 AGCT(TT)3]	0.0039 min⁻¹	
AAAAAGCTTTTT (double strand) [(AA)2 AGCT(TT)2]	0.0063 min⁻¹	
AAATATAGCTATATTT (double strand) [(AA)(AT)2 AGCT(AT)2 TT]	0.0077 min⁻¹	
ATATAGCTATAT (double strand) [(AT)2 AGCT(AT)2]		0.019 min⁻¹
ATATATAGCTATATAT (double strand) [(AT)3 AGCT(AT)3]	0.0115 min⁻¹	
ATATATATAGCTATATATAT (double strand) [(AT)4 AGCT(AT)4]	0.0093 min⁻¹	

Reference: US6027884
